Measured values reported in patent US20180147281A1 (Astellas, published 2018).

B1: fully human anti-human NGF antibody 1-15 (N52D-A)-Fab' fragment (Fab, V domains shown)
VH: QVQLQQWGAGLLKPSETLSLTCAVYGGSFSGYYWSWVRQPPGKGLEWIGEIDHSGSTNNNPSLKSRVTISVGTSKNQFSLKLSSVTAADTAVYYCSRDGGPESGMGAFDIWGQGTMVTVSS
VL: not shown
B2: Tanezumab (antibody, V domains shown)
VH: QVQLQESGPGLVKPSETLSLTCTVSGFSLIGYDLNWIRQPPGKGLEWIGIIWGDGTTDYNSAVKSRVTISKDTSKNQFSLKLSSVTAADTAVYYCARGGYWYATSYYFDYWGQGTLVTVSS
VL: DIQMTQSPSSLSASVGDRVTITCRASQSISNNLNWYQQKPGKAPKLLIYYTSRFHSGVPSRFSGSGSGTDFTFTISSLQPEDIATYYCQQEHTLPYTFGQGTKLEIKR

Experiments:
[1] = biological target: T1, human NGF (R&D Systems, 256-GF-100/CF) (human, UniProt P01138 122-241, in the competitive ELISAs biotinylated with EZ-Link NHS-PEG4-Biotin (sites not given); unlabelled when immobilized in the binding ELISA); test: human NGF-trkA competitive ELISA, trkA immobilized, biotinylated human NGF; geometric average of two runs
T1 construct: Commercial recombinant protein; also called biotinylated human NGF; nerve growth factor

[2] = biological target: T1, human NGF (R&D Systems, 256-GF-100/CF); test: human NGF-trkA competitive ELISA, IC50 after against before incubation
[3] = biological target: T1, human NGF (R&D Systems, 256-GF-100/CF); test: human NGF-trkA competitive ELISA after incubation of the antibody 14 days at pH 6 and 50 C; geometric average of two runs
[4] = biological target: T1, human NGF (R&D Systems, 256-GF-100/CF); test: human NGF-trkA competitive ELISA; geometric average of three tests
[5] = biological target: T1, human NGF (R&D Systems, 256-GF-100/CF); test: ELISA, human NGF immobilized, detection with biotinylated anti-human kappa light-chain antibody; geometric average of two runs

| Binder | IC50 [1] | increase rate of the IC50 value after incubation for 14 days at 50 C relative to that before the incubation [2] | IC50 [3] | IC50 [4] | EC50 [5] |
| --- | --- | --- | --- | --- | --- |
| B1 | 0.3 µg/mL | 59% | 0.47 µg/mL |  |  |
| B2 |  |  |  | 0.86 µg/mL | 0.146 µg/mL |
